Experiment: soluble on expression in E. coli; label from the status in PepcDB or PDB records
For “VDYKTVRCHFGDVELTKWITITDGFTVFSGADYDPELKEIGGKDGSIFIGTKTKHKVIKVPFWVKYNTIEDYDALQLALSSKKPKMLMFSHIPGRYYLAVQVGDLNFKEIKMNGFGEITFIVADAYAHSTSYRRIKDYTQDGNKMTFKIKNNGTAPAFPIFRIKHLGENGYIGITNETGAFAVGSPEEEDGTIVHRNETLFDYSKAIAQALEGAPNVAKLNYMPPTFDSELKRMRLDNILGSGKGGEYVAIGARGTTPGYGEHVGTRTFIINPDSNGEYTLNEHLWWKQIFIATAQDQKGFLKLCVTGENDEFLYGIETYKRKNGFETEYNFFALDDDGVGWRFYKQFEFQADRNYHNPFSMNRSRAVEIFREEDKFRIYFNGAHHHVTVPSLKGKKSRKIHLAMGTCSDSSKYINYNLFEKVNFEKMGVSHYNNIVNKYQPGDEVIINFENDTVSTKDIDSIQDVVLGSKMISIPPGESELVVHLSSWVA”, the “soluble on expression in E. coli” value was “not soluble”. For “MDDPSITPTEKCRFYLGITLRDDTKARPVPGIMQIPGGRYAVFRHTGSYSSLHKVYRSIYEEWFPKSKYHPQSTFSFEMYMNHPSTTETSELLTEIYIPVIRK”, the “soluble on expression in E. coli” value was “not soluble”. In the case of “MDVYHDGACPEVKPVDNFDWSQYHGKWWEVAKYPSPNGKYGKCGWAEYTPEGKSVKVSRYDVIHGKEYFMEGTAYPVGDSKIGKIYHSRTVGGYTKKTVFNVLSTDNKNYIIGYSCRYDEDKKGHWDHVWVLSRSMVLTGEAKTAVENYLIGSPVVDSQKLVYSDFSEAACKVNNSNWSHPQFEK”, the “soluble on expression in E. coli” value is reported as “soluble”. With “GPGSMPQPSALQSARSFLGTVAEDSVRCDRGLDSVPHNEAGLRCLAADGNWSAVAELAERLSAAATEETAEGLSRRLQFILVQVTANFHMQRYNVAKKLVESLGDLNSERYIDPKTSESTVPFSLRFISAIIPLYIGTKMDSQQRLYALLRDCRENLGKYASAVWVARIKRVQRALVVSHYQVEQYSEALRIYNELIAVEGNADGDDMGSYALLRRMLHLHQFAALALFCGNASFANSIYQSIASINVSEAAPCVQNFHECLVDFNTGIWLSFNGKVQDSMKVFCDVATKSREYYCALGASQLMSTDVPTVSNRQLKFVADGCDALALSELCRHAFHQLLVNATTSHVVTMPYEALRGKAPATMLGGTIRTMEDYLRNDPAGLLSSDAFISNGVRLYTLEGGTQMRRLELLNDLIEVFRCDRASAPPIDKIV” the “soluble on expression in E. coli” value was “not soluble”. For “MSLTIPGVVIIGGAHGTLALARSLGVLNVPVYYLTHDSPLPGWSRFVRETIRWAGPHDDGAMAFLREMAEKPGLKGCLLVPSGDGEVQLVSQHREELSALYKIILPEWTNLQWLCEKPLLYKRAAELGVSIPRTYALTSAADIDGLDVMFPVILKPHMGGGNTSIARAKVIRADDREELKAAFVDASGEIGPDNVVVQELIPGGGESQFSYAALWLNGEPIAEFTARRARQYPVDFGYTSTRVEVVDNRQAIEAARKILKSAGHSGLVEVEFKLDGRDGALKLLDVNPRPWSWFGLCSAAGINLGGLLWRVANEGHHHHHH”, the “soluble on expression in E. coli” value was “soluble”. In the case of “MPELPEVETVRRELEKRIVGQKIISIEATYPRMVLTGFEQLKKELTGKTIQGISRRGKYLIFEIGDDFRLISHLRMEGKYRLATLDAPREKHDHLTMKFADGQLIYADVRKFGTWELISTDQVLPYFLKKKIGPEPTYEDFDEKLFREKLRKSTKKIKPYLLEQTLVAGLGNIYVDEVLWLAKIHPEKETNQLIESSIHLLHDSIIEILQKAIKLGGSSIRTYSALGSTGKMQNELQVYGKTGEKCSRCGAEIQKIKVAGRGTHFCPVCQQK”, the “soluble on expression in E. coli” value is reported as “soluble”. For “MGSDKIHHHHHHCNFDGRPCCWANVPPPDDQLDWQIASGVPVQLQNRGVPQPEGSYLIAYAKSAAPSDEAQFASCSIGCASSDIVVRAKHWQSESVLLQVCLRESFPSNAERNPLINCQEFPYVDGMGTTEVILPKTSLVDIVFVASNFIGDQGDVAILDDIEVSYDRNGSECQN”, the “soluble on expression in E. coli” value was “not soluble”. For “MVHVSGTKVKVVKKKLTKFKRHESDRYRRVAPSWRKPKGIDNRVRRRFRGMRAMPTIGHGSDRRTRFVLPNGYKKVLVQNVKDLDMLLMQSYKYIGEIGHGVSAKSRKGIVERAAQLNIKLTNGNARLRTEESE”, the “soluble on expression in E. coli” value was “not soluble”. In the case of “EKAQLIGPEDADITFVTWGSQKGPILDVIEDLKQDDITANLLYLKMFSPFPTEFVKSILSKAHLVIDVESNFTAQAAQMIKLYTGIEIENKILKYNGRHMTEDEILNSAKNILNK”, the “soluble on expression in E. coli” value is reported as “not soluble”.

— the DeepSol protein solubility set
